Reference: US20260258115A1 (MAPP BIOPHARMACEUTICAL, published 2026)

target: RSV prefusion F (preF), subtype B (respiratory syncytial virus, subtype B); assay: BLI, IgG

| Binder | Kd [nM] |
| --- | --- |
| ADI-20998 (antibody, V domains shown) VH: QVQLVQSGGGVVQPGRSLRLSCAASGFTLSTYGMHWVRQAPGKGLEWVAVIYYDESNKFYADSVQGRFTISRDDSKNTLFLQMNSLRAEDTAVYYCARESRPRGYSYSDFDSWGQGTLVTVSS VL: QPGLTQPRSVSGSPGQSVTISCTGTSSDVGTFNYVSWYQQHPGKAPKLMIYDVNQRPSGVPDRFSGSKSGNTASLTISGLQAEDEADYYCCAYAGYYSFGGGTKLTVL | 1.35 |
| ADI-21005 (antibody, V domains shown) VH: EVQLVESGGAVVQPGGSLRLSCVASGLAFDEYTMHWVRQSSAKGLEWISLISWNGGITYYADSVKGRFTISRDNSKNSLYLQMNSLRTEDTATYFCARLGYGSGSDYGDDYWGQGTLVTVSS VL: ETTLTQSPGTLSLSPGERATLSCRASQSVSNNYLAWYQQKPGQAPRLLIHGASTRVTGIPARFSGSGSGTDFTLTISRLEPEDFAVYYCHQYHSSPRTFGQGTKVDIK | 7.7 |
| ADI-20978 (antibody, V domains shown) VH: EVQLVESGAEVKKPGASVKVSCKASGYTFGNYGISWVRQAPGQGLEWMGWISAYNGNSNYAQKFQGRVTMTTDTSASTAYMEVRSLRSDDTAVYYCARDVPVTAARLLDYWGQGTLVTVSS VL: DIVLTQTPLSLPVTLGQPASISCRSSQSLVYSDGNTYLSWFQQRPGQSPRRLIYKVSNRDSGVPDRFSGSGSGTDFTLKISRVEAEDVGVYYCMQATDWLGYTFGQGTKLEIK | 0.319 |
| ADI-21015 (antibody, V domains shown) VH: QVQLVQSGAEVKKPGASVRVSCKVPGNTLSDLSMHWVRHTPGEGLEWMGSFDPEYGETIPAQRFQGRVTMTEDTSTDTAYMELTSLRFEDTAVYYCAAPHASGALQHWGQGTLVTVSS VL: DIVMTQSPSSLSASVGDRVTITCRASQIISAYLNWYQQKAGKAPKLLIYAASSLQSGVPSRFSGSGSGTDFTLTISSLQPEDFATYYCQQTYITPFTFGQGTKLEIK | 32.4 |
| ADI-20984 (antibody, V domains shown) VH: EVQLLETGAEVKKPGASVKVSCHVSGYGLTDLSMHWVRQAPGKRLQWMGSFDPQYGETIDTQNFQGRVTMTVDTSTATLYMQLSGLRSEDTAMYYCATPQSTGALDNWGQGTLVTVSS VL: DIRVTQSPSSLSASVGDRVTITCRASQSISSYLSWYQQKPGKAPRLVIFAASNLQSGVPSRFSGTGSSRFSDSGSWTDFTLTISSLQPEDFAIYYCQQTYITPFTFGQGTKVDIK | 20.2 |
| ADI-20980 (antibody, V domains shown) VH: QVQLQESGPGLVKPSQTLSLTCSVSGGSVSSGDYYWTWIRQPAGKGLEWIGRIYNSGGTDYSPSLKSRVTISVDTSKNQFSLKLSSVTAADTAVYYCARGRGYYESPWGQGTLVTVSS VL: EIVLTQSPATLSLSPGERATLSCRASQSVGIYIGWYQQKPGQAPRLLMYDASNRATGIPDRFSGSGSGTDFSLTISSLEPEDFAVYYCQLRSKWLTFGPGTKVEIK | 0.542 |
| ADI-20987 (antibody, V domains shown) VH: QVQLVQSGGGVVHPGRSLRLSCAASGFSFSDYGMHWVRQAPGKGLEWVAVIWYDGINKYYADSVKGRFAISRDNSKNTLYLQMNSLRAGDTAVYYCARGGIAAAQRYFDYWGQGTLVTVSS VL: ETTLTQSPGTLSLSPGERATLSCRASQTVSSSNLAWYQQKPGQAPRLLIYGASSRATGIPDRFSGSGSGTDFTLTISRLEPEDFAVYYCQQSGTSFGQGTKVDIK | 35.6 |
| ADI-21013 (antibody, V domains shown) VH: QVQLQESGPGVVKPSETLSLTCTVSGGSISNTHSYWGWIRQSPGKGLEWIGSIYYTGSTYYNPSFRSRVTLSVDTSKNQFSLKLSSVTAADTAVYYCAAPDYFVLTDYKSTFDYWGRGALVTVSS VL: DIVMTQSPGTLSLSPGGRATLSCRASQSVGSSSLAWYQQKPGQAPRLLIYGASSRAAGIPDRFSGSGSGTDFTLTINRLEPEDFAMYYCQQYGSSPLTFGGGTKVEIK | 1.79 |
